Here are results for 39 proteins from US20210238260.

Numbering of substitutions follows the chain as printed. Numbers in names are those of the source.

B1: FIXa D104N/K106S/R318Y/R338E/E410N (protein)
chain 1: YNSGKLEEFVQGNLERECMEEKCSFEEAREVFENTERTTEFWKQYVDGDQCESNPCLNGGSCKDDINSYECWCPFGFEGKNCELDVTCNIKNGRCEQFCKNSANNSVVCSCTEGYRLAENQKSCEPAVPFPCGRVSVSQTSKLTR
chain 2: VVGGEDAKPGQFPWQVVLNGKVDAFCGGSIVNEKWIVTAAHCVETGVKITVVAGEHNIEETEHTEQKRNVIRIIPHHNYNAAINKYNHDIALLELDEPLVLNSYVTPICIADKEYTNIFLKFGSGYVSGWGRVFHKGYSALVLQYLRVPLVDRATCLESTKFTIYNNMFCAGFHEGGRDSCQGDSGGPHVTEVEGTSFLTGIISWGEECAMKGKYGIYTKVSRYVNWIKNKTKLT
B2: FIXa K228N/R318Y/R338E/R403E/E410N (protein)
chain 1: B1 chain 1 with N104D, S106K
chain 2: B1 chain 2 with K48N, R223E
B3: FIXa A103N/N105S/K247N/N249S/R318Y/R338E/R403E/E410N (protein)
chain 1: B1 chain 1 with A103N, N104D, N105S, S106K
chain 2: B1 chain 2 with K67N, N69S, R223E
B4: FIXa variant D203N/F205T/K228N (protein)
chain 1: B1 chain 1 with N104D, S106K
chain 2: B1 chain 2 with D23N, F25T, K48N, Y138R, E158R, N230E
B5: FIXa Y155F/R318Y/R403E/E410N (protein)
chain 1: B1 chain 1 with N104D, S106K
chain 2: B1 chain 2 with E158R, R223E
B6: FIXa R318Y/R338E/E410S (protein)
chain 1: B1 chain 1 with N104D, S106K
chain 2: B1 chain 2 with N230S
B7: FIXa Y155F/R318Y/R338E/E410N (protein)
chain 1: B1 chain 1 with N104D, S106K
chain 2: B1 chain 2
B8: FIXa variant D203N/F205T/R338A (protein)
chain 1: B1 chain 1 with N104D, S106K
chain 2: B1 chain 2 with D23N, F25T, Y138R, E158A, N230E
B9: FIXa variant R338E/R403E/E410N (protein)
chain 1: B1 chain 1 with N104D, S106K
chain 2: B1 chain 2 with Y138R, R223E
B10: FIXa K247N/N249S/R318Y/R338E/E410N (protein)
chain 1: B1 chain 1 with N104D, S106K
chain 2: B1 chain 2 with K67N, N69S
B11: FIXa D104N/K106S/Y155F/K247N/N249S/R318Y/R338E/R403E/E410N (protein)
chain 1: B1 chain 1
chain 2: B1 chain 2 with K67N, N69S, R223E
B12: FIXa D85N/K228N/R318Y/R338E/R403E/E410N (protein)
chain 1: B1 chain 1 with D85N, N104D, S106K
chain 2: B1 chain 2 with K48N, R223E
B13: FIXa variant K228N/R338E/R403E (protein)
chain 1: B1 chain 1 with N104D, S106K
chain 2: B1 chain 2 with K48N, Y138R, R223E, N230E
B14: FIXa D104N/K106S/K247N/N249S/R318Y/R338E/R403E/E410N (protein)
chain 1: B1 chain 1
chain 2: B1 chain 2 with K67N, N69S, R223E
B15: FIXa K247N/N249S/R318Y/R338E/R403E/E410N (protein)
chain 1: B1 chain 1 with N104D, S106K
chain 2: B1 chain 2 with K67N, N69S, R223E
B16: FIXa R318Y/R338E/R403E/E410N (protein)
chain 1: B1 chain 1 with N104D, S106K
chain 2: B1 chain 2 with R223E
B17: FIXa R318Y/R338E/R403E/E410S (protein)
chain 1: B1 chain 1 with N104D, S106K
chain 2: B1 chain 2 with R223E, N230S
B18: FIXa R318Y/R403E/E410N (protein)
chain 1: B1 chain 1 with N104D, S106K
chain 2: B1 chain 2 with E158R, R223E
B19: FIXa Y155F/K247N/N249S/R318Y/R338E/R403E/E410N (protein)
chain 1: B1 chain 1 with N104D, S106K
chain 2: B1 chain 2 with K67N, N69S, R223E
B20: FIXa variant K293A/R338A/R403A (protein)
chain 1: B1 chain 1 with N104D, S106K
chain 2: B1 chain 2 with K113A, Y138R, E158A, R223A, N230E
B21: FIXa D104N/K106S/I251S/R318Y/R338E/E410N (protein)
chain 1: B1 chain 1
chain 2: B1 chain 2 with I71S
B22: FIXa variant Y155F/R338E/R403E/E410N (protein)
chain 1: B1 chain 1 with N104D, S106K
chain 2: B1 chain 2 with Y138R, R223E
B23: FIXa D104N/K106S/Y155F/K228N/K247N/N249S (protein)
chain 1: B1 chain 1
chain 2: B1 chain 2 with K48N, K67N, N69S, Y138R, E158R, N230E
B24: FIXa variant R318Y/R338E/R403E (protein)
chain 1: B1 chain 1 with N104D, S106K
chain 2: B1 chain 2 with R223E, N230E
B25: FIXa Y155F/I251S/R318Y/R338E/R403E/E410N (protein)
chain 1: B1 chain 1 with N104D, S106K
chain 2: B1 chain 2 with I71S, R223E
B26: FIXa Y155F/K247N/N249S/R318Y/R338E/E410N (protein)
chain 1: B1 chain 1 with N104D, S106K
chain 2: B1 chain 2 with K67N, N69S
B27: FIXa variant D203N/F205T/R338E/R403E (protein)
chain 1: B1 chain 1 with N104D, S106K
chain 2: B1 chain 2 with D23N, F25T, Y138R, R223E, N230E
B28: FIXa Y259F/K265T/Y345T (protein)
chain 1: B1 chain 1 with N104D, S106K
chain 2: B1 chain 2 with Y79F, K85T, Y138R, E158R, Y165T, N230E
B29: FIXa variant D203N/F205T/E410N (protein)
chain 1: B1 chain 1 with N104D, S106K
chain 2: B1 chain 2 with D23N, F25T, Y138R, E158R
B30: FIXa Y155F/K228N/R318Y/R338E/R403E/E410N (protein)
chain 1: B1 chain 1 with N104D, S106K
chain 2: B1 chain 2 with K48N, R223E
B31: FIXa variant D203N/F205T/R338E (protein)
chain 1: B1 chain 1 with N104D, S106K
chain 2: B1 chain 2 with D23N, F25T, Y138R, N230E
B32: FIXa K228N/K247N/N249S (protein)
chain 1: B1 chain 1 with N104D, S106K
chain 2: B1 chain 2 with K48N, K67N, N69S, Y138R, E158R, N230E
B33: FIXa I251S/R318Y/R338E/R403E/E410N (protein)
chain 1: B1 chain 1 with N104D, S106K
chain 2: B1 chain 2 with I71S, R223E
B34: FIXa D104N/K106S/K228N/K247N/N249S (protein)
chain 1: B1 chain 1
chain 2: B1 chain 2 with K48N, K67N, N69S, Y138R, E158R, N230E
B35: FIXa K228N/R318Y/E410N (protein)
chain 1: B1 chain 1 with N104D, S106K
chain 2: B1 chain 2 with K48N, E158R
B36: FIXa variant Y155F/R318Y/R338E/R403E (protein)
chain 1: B1 chain 1 with N104D, S106K
chain 2: B1 chain 2 with R223E, N230E
B37: FIXa I251S/R318Y/R338E/E410N (protein)
chain 1: B1 chain 1 with N104D, S106K
chain 2: B1 chain 2 with I71S
B38: FIXa variant K293E/R338E/R403E (protein)
chain 1: B1 chain 1 with N104D, S106K
chain 2: B1 chain 2 with K113E, Y138R, R223E, N230E
B39: FIXa variant D203N/F205T/R318Y (protein)
chain 1: B1 chain 1 with N104D, S106K
chain 2: B1 chain 2 with D23N, F25T, E158R, N230E

In this data set the target is Factor X (FX), P00742.
Chain of Factor X (FX), P00742 (P00742 whole entry, looked up): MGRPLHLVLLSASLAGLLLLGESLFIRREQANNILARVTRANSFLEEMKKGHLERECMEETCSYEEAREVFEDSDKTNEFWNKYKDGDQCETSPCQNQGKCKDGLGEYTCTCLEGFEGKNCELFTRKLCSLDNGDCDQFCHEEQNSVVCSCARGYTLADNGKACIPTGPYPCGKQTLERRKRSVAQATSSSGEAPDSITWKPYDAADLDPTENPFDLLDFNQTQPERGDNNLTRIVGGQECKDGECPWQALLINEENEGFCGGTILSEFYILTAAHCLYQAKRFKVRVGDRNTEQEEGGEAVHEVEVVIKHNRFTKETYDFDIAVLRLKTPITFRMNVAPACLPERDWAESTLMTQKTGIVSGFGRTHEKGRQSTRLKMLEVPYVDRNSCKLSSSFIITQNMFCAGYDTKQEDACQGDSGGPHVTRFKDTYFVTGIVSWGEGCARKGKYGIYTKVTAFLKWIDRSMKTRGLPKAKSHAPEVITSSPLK
What is called KM is the substrate concentration at which the rate is half of its maximum. B1: the KM was 0.0189 µM.
B2: the KM (FX activation by FIXa in the Xase complex with FVIIIa, PC/PS vesicles and Ca2+) stood at 0.0361 µM.
Same read-out and setting: as for B3, the figure is 0.028 µM.
Broadly, the kcat/KM is the second-order rate constant that governs catalysis at low substrate concentration. Consider B4, for which the “% of WT kcat/KM” value is 30% and the kcat/KM came out at 1.4e+07 M⁻¹ s⁻¹.
B5: the KM came out at 0.111 µM.
B6: the KM (FX activation by FIXa in the Xase complex with FVIIIa, PC/PS vesicles and Ca2+) turned out to be 0.0164 µM.
As for B7, the Michaelis constant (KM) stood at 0.016 µM.
Consider B8, for which the “% of WT kcat/KM” value is listed as 135% and the catalytic efficiency (kcat/KM) came out at 6.2e+07 M⁻¹ s⁻¹.
For B9 the same measures were 411% and 1.9e+08 M⁻¹ s⁻¹.
For the protein B10, the KM (FX activation by FIXa in the Xase complex with FVIIIa, PC/PS vesicles and Ca2+) stood at 0.0166 µM.
Consider B11, for which the KM (FX activation by FIXa in the Xase complex with FVIIIa, PC/PS vesicles and Ca2+) was determined as 0.0518 µM.
Still for that read-out and setting: next, B12: 0.0393 µM.
Turning to B13, the “% of WT kcat/KM” value stood at 105% and the kcat/KM worked out at 4.8e+07 M⁻¹ s⁻¹.
In the case of B14, the KM (FX activation by FIXa in the Xase complex with FVIIIa, PC/PS vesicles and Ca2+) is 0.059 µM.
As for B15, the KM (FX activation by FIXa in the Xase complex with FVIIIa, PC/PS vesicles and Ca2+) stood at 0.0392 µM.
Turning to B16, the KM came to 0.0432 µM.
On to B17, for which the KM (FX activation by FIXa in the Xase complex with FVIIIa, PC/PS vesicles and Ca2+) worked out at 0.0364 µM.
As to B18, the KM was 0.0942 µM.
Consider B19, for which the KM (FX activation by FIXa in the Xase complex with FVIIIa, PC/PS vesicles and Ca2+) is 0.0363 µM.
B20: the “% of WT kcat/KM” value was 53% and the kcat/KM came out at 2.5e+07 M⁻¹ s⁻¹.
In the case of B21, the KM (FX activation by FIXa in the Xase complex with FVIIIa, PC/PS vesicles and Ca2+) turned out to be 0.0243 µM.
With B22, the “% of WT kcat/KM” value came out at 401% and the kcat/KM came to 1.8e+08 M⁻¹ s⁻¹.
Regarding B23, the KM (FX activation by FIXa in the Xase complex with FVIIIa, PC/PS vesicles and Ca2+) came to 0.0753 µM.
With B24, the “% of WT kcat/KM” value came out at 134% and the kcat/KM was 6.2e+07 M⁻¹ s⁻¹.
B25: the KM (FX activation by FIXa in the Xase complex with FVIIIa, PC/PS vesicles and Ca2+) stood at 0.0433 µM.
As for B26, the KM (FX activation by FIXa in the Xase complex with FVIIIa, PC/PS vesicles and Ca2+) amounted to 0.0147 µM.
For the protein B27, the “% of WT kcat/KM” value was 41% and the kcat/KM was 1.9e+07 M⁻¹ s⁻¹.
Consider B28, for which the KM (FX activation by FIXa in the Xase complex with FVIIIa, PC/PS vesicles and Ca2+) is 0.0309 µM.
For B29, the “% of WT kcat/KM” value is 91% and the kcat/KM came to 4.2e+07 M⁻¹ s⁻¹.
As for B30, the KM (FX activation by FIXa in the Xase complex with FVIIIa, PC/PS vesicles and Ca2+) was 0.0408 µM.
For B31, the “% of WT kcat/KM” value was 228% and the kcat/KM is 1e+08 M⁻¹ s⁻¹.
For B32, the KM (FX activation by FIXa in the Xase complex with FVIIIa, PC/PS vesicles and Ca2+) was 0.0945 µM.
In the case of B33, the KM (FX activation by FIXa in the Xase complex with FVIIIa, PC/PS vesicles and Ca2+) came to 0.0334 µM.
In the case of B34, the KM (FX activation by FIXa in the Xase complex with FVIIIa, PC/PS vesicles and Ca2+) was determined as 0.0771 µM.
As to B35, the Michaelis constant (KM) was 0.042 µM.
As for B36, the “% of WT kcat/KM” value is reported as 189% and the kcat/KM is 8.7e+07 M⁻¹ s⁻¹.
On to B37, for which the KM (FX activation by FIXa in the Xase complex with FVIIIa, PC/PS vesicles and Ca2+) stood at 0.0161 µM.
Consider B38, for which the “% of WT kcat/KM” value was determined as 36% and the specificity constant (kcat/KM) was found to be 1.7e+07 M⁻¹ s⁻¹.
For B39, in that order: 44% and 2e+07 M⁻¹ s⁻¹.
